The subject of one experiment is tobacco callus. The experiment is described as follows: Expression of CalFad2-1 in tobacco callus, GC/GC-MS of fatty acid methyl esters. The experiment is classed as cell-based, Nicotiana tabacum cv. Xanthi. The note with it: stably transformed tobacco callus, 35S promoter. From the text:
To characterize the activity of the CalFad2-1 in transgenic plant cells, the cDNA (ecs1c.pk009.n14) encoding this enzyme was expressed in tobacco callus with the gene under control of the cauliflower mosaic virus 35S promoter. The open-reading frame of the cDNA for CalFad2-1 was amplified by PCR to generate flanking […] restriction enzyme sites for cloning into the plant expression vector. The sequence of the sense oligonucleotide used in the amplification reaction was 5′-tttgagctc[…]-3′ (SEQ ID NO:16), and the sequence of the antisense oligonucleotide was 5′-tttggatcc[…]-3′ (SEQ ID NO: 17) [Note: the bases in lower case contain the added restriction sites, which are underlined, and flanking sequence to facilitate restriction enzyme digestion]. The design of the PCR primers was based on the sequence of the CalFad2-1 cDNA shown in SEQ ID NO:1. […]
Kanamycin-resistant tobacco callus that resulted from the transformation was examined for the presence of calendic acid arising from the activity of CalFad2-1. […] The recovered fatty acid methyl esters were then analyzed using a Hewlett-Packard 6890 chromatograph fitted with an Omegawax 320 column (30 m×0.32 mm inner diameter; Supelco). […] Fatty acid methyl prepared from the transgenic tobacco callus was analyzed with an HP6890 interfaced with a HP5973 (Hewlett-Packard) mass selective detector. […]

Experiment [1] deals with Saccharomyces cerevisiae INVSc1 cells. The experiment is described as follows: Expression of CalFad2-1 and CalFad2-2 in Saccharomyces cerevisiae. The conditions noted are these: cells grown in media containing 2 mM linoleic acid, 4 days at 16° C.; (w/w) of total fatty acids. The format is cell-based. From the text: The Calendula officinalis clones CalFad2-1 and CalFad2-2 were digested with the restriction enzymes EcoRI and XhoI. The resulting DNA fragments containing the entire cDNA inserts were purified by agarose gel electrophoresis. The purified cDNAs were ligated into the EcoRI and XhoI sites of the Saccharomyces cerevisiae expression vector pYES2 (Invitrogen) using T4 DNA ligase (New England Biolabs). The resulting plasmids pYes2/CalFad2-1 and pYes2/CalFad2-2 were introduced into Saccharomyces cerevisiae INVSc1 (Invitrogen Corp.) cells by lithium acetate-mediated transformation [Sherman F, Fink G R, Hicks J B, Methods in Yeast Genetics: A Laboratory Course Manual, Cold Spring Harbor Lab. Press, Plainview, N.Y. (1987)]. Transformed cells were selected for their ability to grow in the absence of uracil. […] In cells grown in media containing linoleic acid, calendic acid (18:3Δ^8trans,10trans,12cis) was detected in amounts of up to 2.9% (w/w) of the total fatty acids of cultures expressing CalFad2-1 (FIG. 3) and in amounts of up to 0.2% of the total fatty acids of cultures expressing CalFad2-2. […] No calendic acid was detected in cultures harboring the expression vector without a cDNA insert or in cells grown in the absence of exogenous linoleic acid. […]

B1: CalFad2-1: Calendula officinalis fatty acid modifying enzyme (cDNA SEQ ID NO:1, protein SEQ ID NO:2) forming conjugated double bonds at delta-9 position (protein, listed as Calendula officinalis)
chain: MGKGASNKKVLERVPITKPPFEYNDLKKAVPPHCFSRPLFRSFYFLLHDIIVTCILFYVASNYIPMLPGFLSYIVWPVYWISQGVFLGRLWMIGHECGHHSFSNYRWVDDSVGFLIHTATLTPYFSFKYSHRNHHAHTNSMEYDEVHIPKRKSEALDLYFEFLGNNPMGLMITMLCKLTFGYAAYIMFNYTGKKHKSGGLASHFYPQSPLFNDSERNHVLFSDVGICIVLYACYRIVMVTGAMSAFYVYGIPWVIMSAILFAATYLQHTHPSIPHYDTTEWNWLRGALSTIDRDLGFFNMNKTHYHVIHHLFPVIPEYHAQEATEAIKPILGQYYKYDGTPFLKALWREMKDCIYVESDQGQKKQGIYWFKNKI
For B1, the “methyl calendic acid, amount of the total fatty acids” value with tobacco callus is recorded as “up to 11.4 % of the total fatty acids”. Also, the “calendic acid (18:3Δ8trans,10trans,12cis), amount of the total fatty acids” value in experiment [1] is “up to 2.9%”.

The values above are taken from patent publication US7786356B2, “Method for the production of calendic acid, a fatty acid containing delta 8,10,12 conjugated double bonds and related fatty acids having a modification at the delta 9 position” (E.I. du Pont de Nemours and Company, priority 1999, dated 2010).
